Laboratory results published in patent EP1068241B1.

Experiments:
[1] = target: FcγRI α subunit-GST fusion (UniProt P12314); experiment: ELISA on coated FcγRI α subunit-GST fusion, IgG at 10 µg/ml
[2] = target: FcγRIIIa α subunit ECD-6His-GST fusion protein (UniProt P08637); experiment: ELISA, E27:chimeric IgE:VEGF immune complex on coated receptor
[3] = target: FcγRIIa α subunit ECD-6His-GST fusion protein (UniProt P12318); experiment: as above
[4] = target: FcγRIIb α subunit ECD-6His-GST fusion protein (UniProt P31994); experiment: as above
[5] = target: CD20 antigen (UniProt P11836); experiment: flow cytometry on WIL2-S cells
[6] = target: human C1q (human) (UniProt P02745); experiment: cell-based or functional assay
[7] = target: human C1q (human) (UniProt P02745); experiment: C1q binding ELISA

Sequence of FcγRIIa α subunit ECD-6His-GST fusion protein (P12318 other isoform, or with tags, fused parts or gaps): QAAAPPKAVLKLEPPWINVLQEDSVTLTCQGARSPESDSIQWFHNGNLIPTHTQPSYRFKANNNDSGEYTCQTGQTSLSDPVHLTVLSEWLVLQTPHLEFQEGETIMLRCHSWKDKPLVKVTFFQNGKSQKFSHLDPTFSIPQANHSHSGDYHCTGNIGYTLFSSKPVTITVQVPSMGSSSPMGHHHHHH
Sequence of human C1q (human) (P02745 23-245 limits assumed, chain 1 of 3): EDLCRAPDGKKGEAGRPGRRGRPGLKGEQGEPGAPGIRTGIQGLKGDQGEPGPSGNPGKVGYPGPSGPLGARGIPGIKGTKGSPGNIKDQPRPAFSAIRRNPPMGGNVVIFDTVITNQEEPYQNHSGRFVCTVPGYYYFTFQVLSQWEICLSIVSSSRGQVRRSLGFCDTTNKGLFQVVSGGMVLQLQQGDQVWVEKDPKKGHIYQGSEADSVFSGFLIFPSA
Sequence of human C1q (human) (P02746 28-253 limits assumed, chain 2 of 3, further chain): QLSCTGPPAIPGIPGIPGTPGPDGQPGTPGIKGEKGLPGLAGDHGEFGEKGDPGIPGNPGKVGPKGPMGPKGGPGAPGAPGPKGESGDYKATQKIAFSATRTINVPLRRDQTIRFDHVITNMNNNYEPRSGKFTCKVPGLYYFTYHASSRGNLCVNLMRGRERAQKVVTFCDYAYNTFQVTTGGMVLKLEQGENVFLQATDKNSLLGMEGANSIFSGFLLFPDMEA
Sequence of human C1q (human) (P02747 29-245 limits assumed, chain 3 of 3, further chain): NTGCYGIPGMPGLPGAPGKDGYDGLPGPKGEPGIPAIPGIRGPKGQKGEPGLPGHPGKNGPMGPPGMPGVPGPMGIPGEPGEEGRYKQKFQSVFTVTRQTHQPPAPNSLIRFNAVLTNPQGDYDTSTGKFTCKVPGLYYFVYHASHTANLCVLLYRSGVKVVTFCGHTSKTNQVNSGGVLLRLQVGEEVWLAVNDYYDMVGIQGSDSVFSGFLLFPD
Sequence of FcγRIIb α subunit ECD-6His-GST fusion protein (P31994 other isoform, or with tags, fused parts or gaps): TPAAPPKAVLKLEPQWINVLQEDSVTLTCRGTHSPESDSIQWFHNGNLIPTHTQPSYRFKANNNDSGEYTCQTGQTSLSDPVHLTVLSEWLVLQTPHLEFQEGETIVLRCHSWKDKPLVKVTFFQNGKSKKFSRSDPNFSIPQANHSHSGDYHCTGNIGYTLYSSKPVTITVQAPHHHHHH
Sequence of CD20 antigen (P11836 whole entry): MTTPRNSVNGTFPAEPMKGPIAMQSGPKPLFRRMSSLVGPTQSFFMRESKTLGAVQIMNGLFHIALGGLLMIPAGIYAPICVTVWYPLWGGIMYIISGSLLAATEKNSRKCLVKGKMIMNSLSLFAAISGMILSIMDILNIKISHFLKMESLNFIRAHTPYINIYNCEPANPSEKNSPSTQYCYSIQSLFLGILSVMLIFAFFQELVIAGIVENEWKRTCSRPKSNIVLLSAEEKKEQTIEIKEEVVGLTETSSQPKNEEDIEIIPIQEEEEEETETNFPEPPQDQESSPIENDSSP
Sequence of FcγRIIIa α subunit ECD-6His-GST fusion protein (P08637 other isoform, or with tags, fused parts or gaps): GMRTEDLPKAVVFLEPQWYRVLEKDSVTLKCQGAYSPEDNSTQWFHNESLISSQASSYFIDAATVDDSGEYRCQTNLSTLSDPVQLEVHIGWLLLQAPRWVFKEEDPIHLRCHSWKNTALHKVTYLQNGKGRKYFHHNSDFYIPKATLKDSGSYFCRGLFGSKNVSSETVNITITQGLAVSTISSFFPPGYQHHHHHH
Sequence of FcγRI α subunit-GST fusion (P12314 other isoform, or with tags, fused parts or gaps): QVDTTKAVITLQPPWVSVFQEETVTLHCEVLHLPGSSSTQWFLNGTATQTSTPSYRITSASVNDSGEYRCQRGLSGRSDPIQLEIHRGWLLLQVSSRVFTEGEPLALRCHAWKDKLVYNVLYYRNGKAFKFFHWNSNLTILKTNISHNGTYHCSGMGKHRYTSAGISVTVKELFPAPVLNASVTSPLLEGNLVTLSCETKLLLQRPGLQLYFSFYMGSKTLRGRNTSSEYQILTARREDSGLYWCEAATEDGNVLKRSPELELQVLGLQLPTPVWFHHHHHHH

Substance | binding as percentage of the wild type [1] | binding as percentage of the wild type [2] | binding as percentage of the wild type [3] | binding as percentage of the wild type [4] | EC50 as percentage of the wild type [5] | CDC (percentage of the wild type) [6] | decrease in binding against wild type C2B8 [7] | fold lower binding than wild type C2B8 [7]
E27 anti-IgE antibody mutant E318A | 93% | 104% | 113% | 106% | – | – | – | –
E27 anti-IgE antibody mutant K320A | 102% | 72% | – | 83% | – | – | – | –
wild type E27 anti-IgE antibody | 100% | 100% | 100% | 100% | – | – | – | –
C2B8 mutant E318A (antibody) | – | – | – | – | 89% | 108% | 30% | –
E27 anti-IgE antibody mutant P329A | 104% | 85% | – | – | – | – | – | –
C2B8 mutant K320A (antibody) | – | – | – | – | 102% | 108% | – | –
C2B8 mutant P329A (antibody) | – | – | – | – | 112% | – | – | –
C2B8 mutant P331A (antibody) | – | – | – | – | 103% | – | – | 60 fold
E27 anti-IgE antibody mutant K322A | 90% | 90% | 109% | 101% | – | – | – | –
E27 anti-IgE antibody mutant P331A | 74% | 73% | 86% | 58% | – | – | – | –
